Assay results from the supplement of paper PMC12764529.
± gives the half width of the 95% confidence interval.

assay: folding stability dG unfold (combined trypsin and chymotrypsin); higher = more stable
Summary of the method: (§1)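 Only designs with AlphaFold2 dimer inter-PAE above 15 were retained; each was a mini-protein under 80 residues with no cysteine, in a PA-tagged cDNA display construct. After digestion with trypsin and chymotrypsin and sequencing, K50 was inferred by Bayesian fitting of counts, and unfolding free energy was derived per protease or combined against a sequence-predicted unfolded-state K50 and a shared folded-state K50.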

Sequence	folding stability dG unfold [kcal/mol]
SAGGSAGGSAGGMPDGAEFELEFEFELPDGYRVRLRIRARIGPDGVVEFEVEVEVYEVPDSAGGSAGGSAGG [r7_125_TrMRF]	5.01 ± 0.13
SAGGSAALPIVEVLETEESSDGTVTILAKLEDGTVVTITVTVEVKPPPPPPPVDPANMSPERLAAVSAGGSA [r15_41_JUSTAS]	0.566 ± 0.19
GPPLPVEVDAEVDVVPLPGGPALVVRRPVRFPVTRRIVVVEVVRLPDGSVVARVDVYDPGDGRPRTFTLPLS [r1_261_TrMRF]	1.9 ± 0.043
SAGGSAGGSAMKIPPGETVEEVELSFLPNGEIILKKTTITKKGNTTTVETEVKIVKPDVPLSAGGSAGGSAG [r3_49_JUSTAS]	0.836 ± 0.1
SAGSSMSSTVRVEVTLTNPVTEVSPDGKTYTTPGDTVAVPVLINVSTTTYYNSSNPSDVVTETTTTVALSAG [r14_274_JUSTAS]	1.18 ± 0.09
SAGGSAGGSAGGPAPKIDIEIIGVFKTGNRPILIIRFPDGAVIVIDLDSGEIGVIPPDQISAGGSAGGSAGG [r7_28_TrROS]	2.66 ± 0.17
SAGGSAMVVRIEVDGKTIEIPAGASLEELKALLAENPGARFRIEVVEPPPPELSEEERKALEEARKSAGGSA [r15_36_TrROS_Hall]	1.37 ± 0.1
SAGGKKITITLTVKTPEDALAAARELAEALGLKIKKIKKVEVTYDEENNLVTVKVEIEIEPLPEEELSAGGS [r16_155_TrROS_Hall]	4.41 ± 0.19
SAGGSAGGSKKITIVVPTKEQAEALAKALEEAGYKVEKLPDGTLKITVDGKKIEVRIVPPKPKSAGGSAGGS [r12_204_TrROS_Hall]	2.7 ± 0.059
SAGMPEPRVFEIPNEGSESDLRDAVRELAEELRPSGREVRLVVEVGGRPREYRLEEVDRFPPDFRVVLGSAG [r5_626_TrMRF]	0.125 ± 0.12
SAGDWELVELRPFRFPNGLEALVAVYRNPADERLVVLTVVREPEGRLVAVALVEFDGDKLVSESVFSPGSAG [r14_828_TrMRF]	3.4 ± 0.12

assay: folding stability dG unfold from chymotrypsin proteolysis; higher = more stable
Summary of the method: as §1

Sequence	folding stability dG unfold [kcal/mol]
SAGMIVTVLSKEVDPATGSTTTYSVSTDPETGETFLYTTTTTGDTVTTTRTVFFPGTGTTSTSTTTTSASAG [r5_150_JUSTAS]	3.019 ± 0.017
SAGGSAGGSGMKTLTIEFPNVTLEEAKEAVLKLLEELGLEPIPLEKVTITYHPENPNVITVVESAGGSAGGS [r12_122_JUSTAS]	1.14 ± 0.12
SAGGSAGGSAGKPSVTILVLTDSPEDALALAKPLLEAGYEVKLELFRLPDDRYLALITVPSAGGSAGGSAGG [r11_677_TrMRF]	3.36 ± 0.039
SAGGKTLVIKMKFKTKEEAEEAIKKLLEELGLPEGAKIEVTVERDENGELTVTITITVKDPEVLKALSAGGS [r8_85_TrROS_Hall]	2.66 ± 0.036
SAGGLDGDMKVDEMEHDPNNGTYRYKAEAGDQWWTFEMKVVPVIPPIPISISPEDLQEGNWNISIWFSAGGS [r16_809_TrROS]	2.39 ± 0.08
SAGGSAGGSEEEVEIKVVEPVDVVVLPDGTVRRTFRVEDGALLVITVHFPPDGNPVGEIEIFPSAGGSAGGS [r20_240_TrMRF]	1.64 ± 0.04
SAGGSELTLTVKVTVTVEVNGKTFTVEATLTLRFRPAPPPPKVRLERDADGNLRVTDANGKTRELRFSAGGS [r16_136_TrROS_Hall]	2.8 ± 0.1
SMIPVEELVRLAAERLGLPEEELENIEEVEPFEVEPLPDNAVRVKLRIRLKNPESDEVTELDIEIVDPGGSA [r9_230_TrMRF]	2.21 ± 0.033
SAGGSAGGMKVTSRETTEITVDTSTGKVTITTTTTLSNGTVVPVGTTTVAISELPEELLSEIESSAGGSAGG [r6_469_JUSTAS]	0.886 ± 0.019
SAGGSAPETLTIKVKNADGSTQTITLPAGATATSIEFNEDTGELTIHLEETGETITLPADEITEITSAGGSA [r15_133_TrROS_Hall]	1.33 ± 0.026
SAGGSAGGSAKKKVKIKLEFDKETNTLRIEVEDEDTGEKTEIEITIKLEPPPPPPLPEELKKSAGGSAGGSA [r18_361_TrROS_Hall]	1.42 ± 0.22
SAGKPIIVKVSVINEDGEEEEIAEFPIPPDLLKGSIEVGDGFIIAPDGEGPTFTAIIGDKPVKIEIEGSAGG [r19_408_TrMRF]	1.52 ± 0.13
SAGGSAGGSAGGSPSPLGKTRPALPASPVLKVPVTLPDDSLLTVYYDPLTGSLVVESYSSAGGSAGGSAGGS [r4_305_TrMRF]	0.414 ± 0.12
SAGGSAGGSAGGFYDPNGKWRIKIKPEVFEFPNYRFIKMKIEVDGRPIMEMPMLIPPNDSAGGSAGGSAGGS [r10_628_TrROS]	2.45 ± 0.16
SAGGSAGGSMTWTETVITLKGNGSETTTYKAKVTEDPSSDTVLVTLPDGTPLTIPKSQVTINSSAGGSAGGS [r12_256_JUSTAS]	0.668 ± 0.14
SAGGSAGGSEKKFKIVSVKVEYNKETGTVTIEVEIYDEKTGKLVLKATITINKNGELKITLEPSAGGSAGGS [r12_115_TrROS_Hall]	5.26 ± 0.46
SAGMTTTLTKTEKFPDGTTVTYTTVTAPDGTPLTATATYDPNNPNKATTTTTDPATGTTTTTTTTITGGSAG [r5_345_JUSTAS]	0.674 ± 0.11
SAMKKVEIEIEVVEVDGELYILIKIKAETPEEVKEAAEKLLKELGLPPEAEVEVVEKDGEVYILIRLKPSAG [r14_804_TrROS_Hall]	4.53 ± 0.05
SMKILIVTKEKAEELAEAIKKKFPNIEIEVFDTPEEAEEAAKKGDIVIVIGSEEEAKELAKKLKVKVIKISA [r9_380_TrROS_Hall]	3.39 ± 0.12
SAGGSVTKEELEKLNVEEVAALLPEDYTVTVVPGTGVVVISAPDRTLTITHDPATGKVTLTSEVEVSAGGSA [r2_470_JUSTAS]	0.125 ± 0.21
SAGGSAGGSSSVVSTLEETPDSVVEKVETPDPIIVERVPLPDGTVEVRVFKPDGTPISISTLGSAGGSAGGS [r12_1061_JUSTAS]	0.0395 ± 0.18
